Common to all, as to experiment: SPR
One assay addresses T1, FcγRIIaR (human, UniProt P12318 34-217).
T1 sequence (looked up): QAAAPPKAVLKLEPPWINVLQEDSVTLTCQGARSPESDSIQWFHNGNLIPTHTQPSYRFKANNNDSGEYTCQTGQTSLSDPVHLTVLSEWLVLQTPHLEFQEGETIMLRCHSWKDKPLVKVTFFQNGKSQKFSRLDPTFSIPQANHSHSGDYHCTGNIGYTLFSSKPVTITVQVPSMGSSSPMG

Assay [1] deals with T2, human FcγRIIa type H (His131) extracellular domain with C-terminal His tag (human, UniProt P12318 34-217).
T2 sequence (looked up): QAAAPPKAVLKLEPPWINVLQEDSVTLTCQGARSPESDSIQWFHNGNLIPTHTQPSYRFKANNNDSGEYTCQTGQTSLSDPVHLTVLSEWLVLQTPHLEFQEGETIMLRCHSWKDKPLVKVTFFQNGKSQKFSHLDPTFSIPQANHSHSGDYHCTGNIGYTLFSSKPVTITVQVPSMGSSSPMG

The target in assay [2] is human FcγRIIIa type V (Val158) extracellular domain with C-terminal His tag (human, UniProt P08637 17-208).
For assay [3], the target named is T3, human FcγRIIb extracellular domain with C-terminal His tag (human, UniProt P31994 43-217).
T3 sequence (looked up): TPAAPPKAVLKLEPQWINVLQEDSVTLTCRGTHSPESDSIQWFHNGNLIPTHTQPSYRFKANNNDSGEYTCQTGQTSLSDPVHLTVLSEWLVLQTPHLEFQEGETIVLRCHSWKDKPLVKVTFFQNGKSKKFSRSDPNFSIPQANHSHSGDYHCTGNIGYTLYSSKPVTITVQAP

Assay [4] concerns the target human FcγRIa extracellular domain with C-terminal His tag (human, UniProt P12314 16-292).
In assay [5] the target is T4, human FcγRIIa type R (Arg131) extracellular domain with C-terminal His tag (human, UniProt P12318 34-217).
T4 sequence (looked up): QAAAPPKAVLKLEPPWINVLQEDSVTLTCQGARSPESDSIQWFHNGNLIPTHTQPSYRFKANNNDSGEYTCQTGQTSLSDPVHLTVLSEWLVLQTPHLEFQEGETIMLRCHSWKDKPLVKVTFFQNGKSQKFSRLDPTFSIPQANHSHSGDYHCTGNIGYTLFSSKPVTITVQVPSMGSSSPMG

In assay [6] the target is T3, human FcγRIIb extracellular domain with …. This is another data set of the same source.
The target is the same in assay [7]. The source holds these as a separate data set.
Assay [8] addresses T4, human FcγRIIa type R (Arg131) …. This is another data set of the same source.
For assay [9], the target named is T3, human FcγRIIb extracellular domain with …. The source holds these as a separate data set.
Assay [10] has as its target T5, FcγRIIb extracellular domain with C-terminal His tag (human, UniProt P31994 43-217).
T5 sequence (looked up): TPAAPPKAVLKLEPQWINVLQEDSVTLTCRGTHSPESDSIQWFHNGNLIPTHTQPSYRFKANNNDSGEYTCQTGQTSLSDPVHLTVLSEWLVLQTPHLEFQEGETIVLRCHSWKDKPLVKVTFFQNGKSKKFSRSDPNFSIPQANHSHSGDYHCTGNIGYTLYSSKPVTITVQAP

Assay [11] addresses T5, FcγRIIb extracellular domain with …. The source holds these as a separate data set.
Assay [12] shares this target. The source holds these as a separate data set.
A further assay concerns the target T6, FcγRIIaH (human, UniProt P12318 34-217).
T6 sequence (looked up): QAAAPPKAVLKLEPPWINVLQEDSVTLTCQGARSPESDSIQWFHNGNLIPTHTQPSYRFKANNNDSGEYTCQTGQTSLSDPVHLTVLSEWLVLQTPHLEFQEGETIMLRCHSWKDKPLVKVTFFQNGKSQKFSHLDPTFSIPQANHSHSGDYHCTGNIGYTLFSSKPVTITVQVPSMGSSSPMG

For another assay, the target named is T7, mouse FcγRIII (mouse, UniProt P08508 31-215).
T7 sequence (looked up): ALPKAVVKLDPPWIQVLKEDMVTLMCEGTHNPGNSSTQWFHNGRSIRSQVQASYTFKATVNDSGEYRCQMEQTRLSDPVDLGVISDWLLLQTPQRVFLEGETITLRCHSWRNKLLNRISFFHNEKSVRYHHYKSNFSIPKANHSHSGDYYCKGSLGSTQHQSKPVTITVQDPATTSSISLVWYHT

Broadly, the Kd is the equilibrium constant for the complex coming apart. Read a high Kd as a looser complex.

Chain of human FcγRIa extracellular domain with C-terminal His tag (P12314 16-292): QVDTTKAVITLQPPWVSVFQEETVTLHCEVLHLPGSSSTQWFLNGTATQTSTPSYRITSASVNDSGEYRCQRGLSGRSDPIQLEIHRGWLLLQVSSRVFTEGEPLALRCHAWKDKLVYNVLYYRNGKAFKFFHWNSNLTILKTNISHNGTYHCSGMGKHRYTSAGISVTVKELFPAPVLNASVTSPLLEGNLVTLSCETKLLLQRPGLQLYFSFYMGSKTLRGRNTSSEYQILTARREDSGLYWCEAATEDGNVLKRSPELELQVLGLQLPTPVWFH
Chain of human FcγRIIIa type V (Val158) extracellular domain with C-terminal His tag (P08637 17-208 F176V): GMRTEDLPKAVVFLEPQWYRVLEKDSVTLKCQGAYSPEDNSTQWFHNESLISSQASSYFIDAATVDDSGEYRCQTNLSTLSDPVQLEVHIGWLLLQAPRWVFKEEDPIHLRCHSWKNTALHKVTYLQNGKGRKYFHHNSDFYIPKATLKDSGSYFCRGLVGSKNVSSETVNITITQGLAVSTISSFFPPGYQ

B1: IL6R-BP144/IL6R-L (antibody, human IgG1, kappa)
heavy: QVQLQESGPGLVKPSETLSLTCAVSGHSISHDHAWSWVRQPPGEGLEWIGFISYSGITNYNPSLQGRVTISRDNSKNTLYLQMNSLRAEDTAVYYCARSLARTTAMDYWGEGTLVTVSSASTKGPSVFPLAPSSKSTSGGTAALGCLVKDYFPEPVTVSWNSGALTSGVHTFPAVLQSSGLYSLSSVVTVPSSSLGTQTYICNVNHKPSNTKVDKKVEPKSCDKTHTCPPCPAPELLGDDSVFLFPPKPKDTLMISRTPEVTCVVVDVSHEDPEVKFNWYVDGVEVHNAKTKPREEQYNSTYRVVSVLTVLHQDWLNGKEYKCKVSNAALPAPIEKTISKAKGQPREPQVYTLPPSRDELTKNQVSLTCLVKGFYPSDIAVEWESNGQPENNYKTTPPVLDSDGSFFLYSKLTVDKSRWQQGNVFSCSVMHEALHNHYTQESLSLSP
light: not shown
Regarding B1, the affinity with FcγRIIaR, expressed as Kd, was 5900 nM.

B2: IL6R-BP567/IL6R-L (antibody, human IgG1, kappa)
heavy: QVQLQESGPGLVKPSETLSLTCAVSGHSISHDHAWSWVRQPPGEGLEWIGFISYSGITNYNPSLQGRVTISRDNSKNTLYLQMNSLRAEDTAVYYCARSLARTTAMDYWGEGTLVTVSSASTKGPSVFPLAPSSKSTSGGTAALGCLVKDYFPEPVTVSWNSGALTSGVHTFPAVLQSSGLYSLSSVVTVPSSSLGTQTYICNVNHKPSNTKVDKKVEPKSCDKTHTCPPCPAPDLLGGDSVFLFPPKPKDTLMISRTPEVTCVVIDVAEEDGEVKFNWYVDGVEVHNAKTKPREEQDNSTYRVVSVLTVLHQDWLNGKEYKCKVSNKALPAPIEKTISKAKGQPREPQVYTLPPSRDELTKNQVSLTCLVKGFYPSDIAVEWESNGQPENNYKTTPPVLDSDGSFFLYSKLTVDKSRWQQGNVFSCSVMHEALHNHYTQESLSLSP
light: not shown
Take B2: the Kd is 17000 nM in [1]; 39000 nM in assay [2]; 0.21 nM in assay [4]; 890 nM in assay [5]; 14 nM in [6]. In addition, the “KD (IIaH)/KD (IIb)” value in [3] amounted to 1230. Further, the “KD (IIaR)/KD (IIb)” value in assay [7] stood at 64.4. In addition, the “KD (IIaR) of parent polypeptide/KD (IIaR) of altered polypeptide” value in assay [8] was found to be 1.2. The “KD (IIb) of parent polypeptide/KD (IIb) of altered polypeptide” value (from here on “KD (IIb) of parent polypeptide/KD”) in assay [9] was found to be 225.

B3: IL6R-BP568/IL6R-L (antibody, human IgG1, kappa)
heavy: QVQLQESGPGLVKPSETLSLTCAVSGHSISHDHAWSWVRQPPGEGLEWIGFISYSGITNYNPSLQGRVTISRDNSKNTLYLQMNSLRAEDTAVYYCARSLARTTAMDYWGEGTLVTVSSASTKGPSVFPLAPSSKSTSGGTAALGCLVKDYFPEPVTVSWNSGALTSGVHTFPAVLQSSGLYSLSSVVTVPSSSLGTQTYICNVNHKPSNTKVDKKVEPKSCDKTHTCPPCPAPDLLGGDSVFLFPPKPKDTLMISRTPEVTCVVIDVAEEDGEVKFNWYVDGVEVHNAKTKPREEQYNSTYRVVSVLTVLHQDWLNGKEYKCKVSNKALPAPIEKTISKAKGQPREPQVYTLPPSRDELTKNQVSLTCLVKGFYPSDIAVEWESNGQPENNYKTTPPVLDSDGSFFLYSKLTVDKSRWQQGNVFSCSVMHEALHNHYTQESLSLSP
light: not shown
With B3, the Kd in [1] stood at 11000 nM; in assay [2], 25000 nM; in [4], 0.19 nM; in assay [5], 680 nM; in assay [6] it was 15 nM. The “KD (IIaH)/KD (IIb)” value in [3] came out at 748. Moreover, the “KD (IIaR)/KD (IIb)” value in [7] amounted to 46.1. In addition, the “KD (IIaR) of parent polypeptide/KD (IIaR) of altered polypeptide” value in [8] was determined as 1.6. Moreover, the “KD (IIb) of parent polypeptide/KD” value in assay [9] is 211.

B4: IL6R-BP198/IL6R-L (antibody, human IgG1, kappa)
heavy: QVQLQESGPGLVKPSETLSLTCAVSGHSISHDHAWSWVRQPPGEGLEWIGFISYSGITNYNPSLQGRVTISRDNSKNTLYLQMNSLRAEDTAVYYCARSLARTTAMDYWGEGTLVTVSSASTKGPSVFPLAPSSKSTSGGTAALGCLVKDYFPEPVTVSWNSGALTSGVHTFPAVLQSSGLYSLSSVVTVPSSSLGTQTYICNVNHKPSNTKVDKKVEPKSCDKTHTCPPCPAPDYLGGDSVFLFPPKPKDTLMISRTPEVTCVVVDVSDEDGEVKFNWYVDGVEVHNAKTKPREEQYNSTYRVVSVLTVLHQDWLNGKEYKCKVSNAALPKPIEKTISKAKGQPREPQVYTLPPSRDELTKNQVSLTCLVKGFYPSDIAVEWESNGQPENNYKTTPPVLDSDGSFFLYSKLTVDKSRWQQGNVFSCSVMHEALHNHYTQESLSLSP
light: not shown
With B4, in assay [10], the “KD (IIaR)/KD (IIb)” value came to 11 ratio. Besides, the “KD (IIb) of parent polypeptide/KD” value in [11] is 15.7 ratio. The “KD (IIaH)/KD (IIb)” value in [12] amounted to 102 ratio.

B5: IL6R-BP146/IL6R-L (antibody, human IgG1, kappa)
heavy: QVQLQESGPGLVKPSETLSLTCAVSGHSISHDHAWSWVRQPPGEGLEWIGFISYSGITNYNPSLQGRVTISRDNSKNTLYLQMNSLRAEDTAVYYCARSLARTTAMDYWGEGTLVTVSSASTKGPSVFPLAPSSKSTSGGTAALGCLVKDYFPEPVTVSWNSGALTSGVHTFPAVLQSSGLYSLSSVVTVPSSSLGTQTYICNVNHKPSNTKVDKKVEPKSCDKTHTCPPCPAPEYLGDDSVFLFPPKPKDTLMISRTPEVTCVVVDVSHEDPEVKFNWYVDGVEVHNAKTKPREEQYNSTYRVVSVLTVLHQDWLNGKEYKCKVSNAALPAPIEKTISKAKGQPREPQVYTLPPSRDELTKNQVSLTCLVKGFYPSDIAVEWESNGQPENNYKTTPPVLDSDGSFFLYSKLTVDKSRWQQGNVFSCSVMHEALHNHYTQESLSLSP
light: not shown
B5 displayed a Kd with FcγRIIaH of 16000 nM.

B6: IL6R-BP558/IL6R-L (antibody, human IgG1, kappa)
heavy: QVQLQESGPGLVKPSETLSLTCAVSGHSISHDHAWSWVRQPPGEGLEWIGFISYSGITNYNPSLQGRVTISRDNSKNTLYLQMNSLRAEDTAVYYCARSLARTTAMDYWGEGTLVTVSSASTKGPSVFPLAPSSKSTSGGTAALGCLVKDYFPEPVTVSWNSGALTSGVHTFPAVLQSSGLYSLSSVVTVPSSSLGTQTYICNVNHKPSNTKVDKKVEPKSCDKTHTCPPCPAPELLGDDSVFLFPPKPKDTLMISRTPEVTCVVIDVGEEDGDVKFNWYVDGVEVHNAKTKPREEQYNSTYRVVSVLTVLHQDWLNGKEYKCKVSNKALPRPIEKTISKAKGQPREPQVYTLPPSRDELTKNQVSLTCLVKGFYPSDIAVEWESNGQPENNYKTTPPVLDSDGSFFLYSKLTVDKSRWQQGNVFSCSVMHEALHNHYTQESLSLSP
light: not shown
Turning to B6, the values for the Kd in [2] and in assay [4] were 36000 nM and 15 nM, respectively.

B7: VH3/L(WT)-mIgG1 (antibody)
heavy: QVQLQESGPGLVKPSETLSLTCAVSGHSISHDHAWSWVRQPPGEGLEWIGFISYSGITNYNPSLQGRVTISRDNSKNTLYLQMNSLRAEDTAVYYCARSLARTTAMDYWGEGTLVTVSSAKTTPPSVYPLAPGSAAQTNSMVTLGCLVKGYFPEPVTVTWNSGSLSSGVHTFPAVLQSDLYTLSSSVTVPSSTWPSETVTCNVAHPASSTKVDKKIVPRDCGCKPCICTVPEVSSVFIFPPKPKDVLTITLTPKVTCVVVDISKDDPEVQFSWFVDDVEVHTAQTQPREEQFNSTFRSVSELPIMHQDWLNGKEFKCRVNSAAFPAPIEKTISKTKGRPKAPQVYTIPPPKEQMAKDKVSLTCMITDFFPEDITVEWQWNGQPAENYKNTQPIMDTDGSYFVYSKLNVQKSNWEAGNTFTCSVLHEGLHNHHTEKSLSHSPGK
light: not shown
For the molecule B7, in the assay with mouse FcγRIII, the Kd amounted to 282 nM.
